Key:
[1] = biological target: T1, CXCL10 (Homo sapiens, UniProt P02778); assay: CXCL10-induced activated T-cell migration, transwell assay; assay type: cell-based; conditions: dose of 20 μM
T1 construct: purchased Peprotech
T1 sequence (P02778 22-98): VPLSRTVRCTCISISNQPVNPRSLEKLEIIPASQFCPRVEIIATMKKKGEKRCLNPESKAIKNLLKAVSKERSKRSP
Description: FIG. 2. […] BK1.2 is described in (Darlot, 2020). […] Chemokines used are indicated by the name, followed in parenthesis by the supplier code (P in supplier code indicates Peprotech). […] All experiments were performed at EC80 doses of indicated chemokine. Data are shown as box-whisker plots of three technical and three biological replicates. Statistically significant differences (compared to control, indicated by #), using Dunnett's test with correction for multiple comparisons, are indicated by asterisks: ****=P≤0.0001, ***=P≤0.001, **=P≤0.01, *=P≤0.05.
FIG. 11. […] Technical replicates are shown as individual data points. […] The response curve (solid blue line) and its 95% confidence interval (grey ribbon) were calculated using a 4-parameter log-logistic plot.
(§1) Briefly, cell migration assays use THP1 cells (human monocyte) and primary human buffy coat white cells (consisting of neutrophil granulocytes, monocytes, and lymphocytes), and activated T-cells. THP1 cells and primary monocytes respond to CCL2, CCL3, CCL5, CCL8 and CXCL4, granulocytes to CXCL1 and CXCL8, activated T-cells to CXCL9/10/11. Assays are performed in 96-well Boyden chambers, and migrated cells counted and characterized using and ATTUNE Flow Cytometer as described. […]

[2] = system: CC and CXC chemokines; assay: Chemokine-induced cell migration assays, pooled over chemokines (meta-analysis); assay type: cell-based, human; conditions: CC chemokines
Description: FIG. 16. Effect of HD2 alanine mutations on chemotaxis. […] All experiments were performed as three technical and three biological replicates, and individual data points are indicated, and coloured by the chemokine used. Statistically significant differences (compared to control, coloured blue), using Dunnett's test with correction for multiple comparisons, are indicated by asterisks: ****=P≤0.0001, ***=P≤0.001, **=P≤0.01, *=P≤0.05, n=45 observations per group (three technical and three biological replicates for each chemokine). FIG. 16B, Faceted plots of change in median normalised cell count between alanine mutant and wild-type HD2 peptide obtained in cell migration assays (Y-axis, Δmedian normalised cell count) versus alanine mutated residue (X-axis). Chemokines used for each experiment are indicated in the strip to the right of each plot. Statistically significant differences compared to parental HD2 are shown as red dots. […]
as §1, with “THP1 cells and primary monocytes respond to CCL2, CCL3, CCL5, CCL8 and CXCL4, granulocytes to CXCL1 and CXCL8, activated T-cells to CXCL9/10/11.” left out

B1: EVA4: parental class A tick evasin protein of HD2, expressed in HEK293F cells (protein)
chain: EVPQMTSSSAPDLEEEDDYTAYAPLTCYFTNSTLGLLAPPNCSVLCNSTTTWFNETSPNNASCLLTVDFLTQDAILQENQPYNCSVGHCDNGTCAGPPRHAQCW
Which results are given for B1?
inhibition of cell migration [1]: did not inhibit; inhibition of CC chemokines in dose-response experiments [2]: inhibited

Reference: patent US20260234188A1, “CHEMOKINE-BINDING PEPTIDES” (Oxford University Innovation Limited, priority 2022, published 2026)
